Measured values: paper PMC8667318

Biological target: Recombinant human MCHR1 Protein (human) (UniProt Q99705)
Assay: SPR; Biacore T200, CM5 chip, 25°C; MCHR1 immobilised by amine coupling (~5500 RU); PDGF-BB as analyte 100 nM to 3.125 nM; PBS-P (20 mM phosphate pH 7.4, 137 mM NaCl, 2.7 mM KCl, 0.05% P20); 1:1 kinetics model fitting

Sequence of UniProt Q99705 (Q99705 whole entry): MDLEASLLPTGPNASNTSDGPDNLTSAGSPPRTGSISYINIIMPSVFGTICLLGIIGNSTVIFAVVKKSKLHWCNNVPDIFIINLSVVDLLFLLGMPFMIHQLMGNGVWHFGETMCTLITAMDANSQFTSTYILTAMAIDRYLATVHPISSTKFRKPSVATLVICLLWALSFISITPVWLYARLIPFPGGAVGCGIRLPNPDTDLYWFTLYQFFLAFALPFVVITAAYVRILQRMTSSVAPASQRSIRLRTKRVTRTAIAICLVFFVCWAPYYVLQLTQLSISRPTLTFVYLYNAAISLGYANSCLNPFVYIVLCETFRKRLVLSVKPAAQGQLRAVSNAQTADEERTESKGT

- Kd: 46.6 nM
Substance: Recombinant human PDGF-BB (from UniProt P01127 82-190) (ligand)
